Laboratory results: paper PMC9798103 (The Journal of Cell Biology, 2022)

Target: F-actin (polymerised from Ca2+-ATP G-actin of rabbit skeletal muscle) (rabbit, UniProt P68135 1-377)
Experiment: co-sedimentation

Kd: 5.25 µM
B1: N-terminal half of C. elegans RHGF-1 (RHGF-1-N) (domain or fragment)
chain: MRSYEFVTNTPLKLDRHKVYLVDDVAVTRTVPLSQPLSPSTASSSYNMIERCVVVQRQPDGFGLTVNSEFPVYVHTLKQDGAAYCAGVRQGDRIVKVNGMSVSPNNHKEVLQMISNGHNVALTLLGKPPDPISNISFPNQQVEQKIHIADPVLIEASSKSWRQRRNELLGQMVAEERRNVEGLRESSQNGEKIDRALKRIVSLQSQLKQLKPESIISDSQKSLTNLNMDIDSDEEENDVVYLPESQGGPFSNLAELKTHPAHLAVFINYLLLHGNPSSLFFYLITDAYQSAYGTAKEFRRWAFEIFSTFIIPNSPMCIPNSNQSVIQPIDKIMCMTAEHIGDSDTDTLKRIFVPGRQRAVTDINMYLNDFRQKKQLGGQVSESTNQLTHMVRGDMTMEHRVGEQMLFRCLEQCSNSTDFDSCEIRTQSIISSLATVIKIVLGKTSSSSNEKMLDKFPQFMARDKPPGKSRKLPANIKNRIQVKGHSFSINSVNTVHYCYQCRDAIWGMQPWIYFCSNCDVKVHPHCTSALTDACYPVTQSKQKSKSRLSGLIGRSDANDDEDSGSNARHEQPNVKSTSSDSGIGGEHNMDRGLVSRSHSMRYRVATLPQSLSEDKVSIPSSKRDRSVTPSWQRST
